The text below walks through data of patent US6649166.

Test [1] addresses HLA-DR molecule encoded by the allele HLA-DRB1*1501 (human).
The target in test [2] is T1, HLA-DR molecule encoded by the allele HLA-DRB1*1301 (human).
T1 chain 1: not shown
T1 chain 2: not shown
In words: competition ELISA, nonbiotinylated tracer peptide against its biotinylated form. (ELISA stands for enzyme-linked immunosorbent assay.)

The target in test [3] is T1, HLA-DR molecule encoded by the allele …. Description: competition ELISA, nonbiotinylated peptide against the biotinylated tracer of that DR molecule.
Test [4] deals with T2, HLA-DR molecule encoded by the allele HLA-DRB3*0101 (human).
T2 chain 1: not shown
T2 chain 2: not shown
The test is described as above.

Test [5] addresses HLA-DR molecule encoded by the allele HLA-DRB1*0101 (human). In words: competition ELISA, purified HLA-DR, biotinylated tracer; minus sign = loss.
The target in test [6] is HLA-DR molecule encoded by the allele HLA-DRB1*0301 (human). The test is described as above.
In test [7] the target is HLA-DR molecule encoded by the allele HLA-DRB1*0401 (human). The description is as above.
In test [8] the target is T3, HLA-DR molecule encoded by the allele HLA-DRB1*0701 (human).
T3 chain 1: not shown
T3 chain 2: not shown
Described as above.

The target of test [9] is HLA-DR molecule encoded by the allele HLA-DRB1*1101 (human). The test is described as above.
Test [10] concerns the target T1, HLA-DR molecule encoded by the allele …. The description is as above.
For test [11], the target named is T2, HLA-DR molecule encoded by the allele …. Described as above.
For test [12], the target named is HLA-DR molecule encoded by the allele HLA-DRB1*0301 (human). In words: competition ELISA, nonbiotinylated tracer peptide against its biotinylated form.

Ends that are not written are not given here.

B1: API m1 peptide with glycine 84 substituted by an alanine (peptide)
peptide: YFVAKMYFNLIDT
modifications: not checked
B1 showed a factor of increase in affinity in test [1] of 5 fold.

B2: B1 21-36 (nonbiotinylated peptide) (peptide)
peptide: TERVRLVTRHIYNREE
modifications: not fully specified
Take B2: the IC50 in test [2] is 320 nM; in [3], 275 nM; in [4], 35000 nM.

B3: peptide N89T, analog of the peptide P85-97A (peptide)
peptide: KMYFTLIDTKAYK
modifications: not checked
Consider B3, for which the relative activity (ratio of IC50 to P85-97A) in [5] is 1 fold; in test [6], 7 fold; in [7], 2 fold; in [8], 3 fold; in test [9] it was 2 fold; in test [10], 1 fold. In test [11], the relative activity (ratio of IC50 to P85-97A) was 2 fold.

B4: MT 2-16 (nonbiotinylated peptide) (peptide)
peptide: AKTIAYDEEARGLE
modifications: not fully specified
In the case of B4, the IC50 in [12] is 100 nM.

Usually IC50 stands for the concentration that inhibits the measured activity by half. A low value points to inhibition by little substance.
